Measured values published in paper PMC3608632.

Experiments:
[1] = biological target: hyperphosphorylated R-topo I (CK2-treated baculovirus-expressed recombinant human topo I) (human) (UniProt P11387)
[2] = biological target: basal phosphorylated baculovirus-expressed recombinant human topo I (R-topo I) (human) (UniProt P11387); conditions: scale: % of supercoiled plasmid converted to the relaxed form
[3] = biological target: hyperphosphorylated R-topo I (CK2-treated baculovirus-expressed recombinant human topo I) (human) (UniProt P11387); conditions: scale: % of supercoiled DNA converted to the relaxed form
p14ARF (ARF) = p14ARF (ARF) (UniProt Q8N726); test: anti-FLAG IP, ARF Western; conditions: reference: wild-type full-length topo I (construct 6); sites S506

Row | non-covalent association of R-topo I with radiolabeled plasmid DNA (DNA co-immunoprecipitated with topo I; 75 mM NaCl, 4°C), ARF added at a 1:1 molar ratio; ~60% without ARF (% of input DNA) [1] | relaxation of supercoiled plasmid DNA by R-topo I with ARF added (about 40% without ARF) [2] | relaxation of supercoiled plasmid DNA by R-topo I with ARF added (∼70% without ARF) [3] | binding against the reference (p14ARF (ARF)) | Substance
1 | 80 | 50 | 100 |  | recombinant thioredoxin-human ARF fusion protein (from UniProt Q8N726 1-132) (natural protein)
2 |  |  |  | weaker | topoisomerase I (topo I) (from UniProt P11387) S506A full-length topo I (construct 9)
